Where two headings read alike, the source gives them in different places.

Three molecules from paper PMC9636267 (2022) can be followed below.

Common to all, as to experiment: SPR
(In general: Surface plasmon resonance follows binding to a sensor surface in real time, without labels.)

For test [1], the target named is T1, HCoV-229E S ectodomain (17–1115 aa), 229E S trimer (human coronavirus 229E, UniProt P15423 17-1115).
T1 chain: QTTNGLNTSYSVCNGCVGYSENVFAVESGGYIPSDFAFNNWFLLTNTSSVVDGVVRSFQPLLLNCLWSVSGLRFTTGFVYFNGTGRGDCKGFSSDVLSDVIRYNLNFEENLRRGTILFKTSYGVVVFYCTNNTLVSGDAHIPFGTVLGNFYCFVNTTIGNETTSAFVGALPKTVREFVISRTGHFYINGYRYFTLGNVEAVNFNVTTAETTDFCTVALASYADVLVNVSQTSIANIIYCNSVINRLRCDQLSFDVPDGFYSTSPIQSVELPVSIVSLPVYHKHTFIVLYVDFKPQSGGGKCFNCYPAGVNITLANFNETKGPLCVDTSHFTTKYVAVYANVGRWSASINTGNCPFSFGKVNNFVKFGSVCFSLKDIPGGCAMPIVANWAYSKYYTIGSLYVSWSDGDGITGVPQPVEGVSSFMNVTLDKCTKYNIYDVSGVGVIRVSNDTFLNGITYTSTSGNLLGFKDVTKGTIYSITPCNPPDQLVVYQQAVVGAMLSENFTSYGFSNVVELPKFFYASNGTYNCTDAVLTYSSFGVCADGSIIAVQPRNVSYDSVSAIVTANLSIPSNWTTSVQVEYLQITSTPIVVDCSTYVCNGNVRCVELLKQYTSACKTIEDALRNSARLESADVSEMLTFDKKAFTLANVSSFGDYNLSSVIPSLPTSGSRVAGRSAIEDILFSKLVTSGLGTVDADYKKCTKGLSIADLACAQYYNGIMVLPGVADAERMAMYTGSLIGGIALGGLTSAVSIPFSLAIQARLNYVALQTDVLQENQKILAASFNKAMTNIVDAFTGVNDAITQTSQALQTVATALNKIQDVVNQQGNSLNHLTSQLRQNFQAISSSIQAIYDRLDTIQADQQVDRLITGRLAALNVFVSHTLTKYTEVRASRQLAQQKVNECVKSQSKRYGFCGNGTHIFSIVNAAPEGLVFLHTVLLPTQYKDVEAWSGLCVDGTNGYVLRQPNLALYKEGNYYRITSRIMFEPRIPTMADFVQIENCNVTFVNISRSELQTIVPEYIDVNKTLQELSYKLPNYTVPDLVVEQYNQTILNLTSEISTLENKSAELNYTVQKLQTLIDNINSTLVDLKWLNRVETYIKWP

In test [2] the target is T1, HCoV-229E S ectodomain (17–1115 aa), ….
Test [3] concerns the target T2, HCoV-229E S1 subunit (17–560 aa) (human coronavirus 229E, UniProt P15423 17-560).
T2 chain: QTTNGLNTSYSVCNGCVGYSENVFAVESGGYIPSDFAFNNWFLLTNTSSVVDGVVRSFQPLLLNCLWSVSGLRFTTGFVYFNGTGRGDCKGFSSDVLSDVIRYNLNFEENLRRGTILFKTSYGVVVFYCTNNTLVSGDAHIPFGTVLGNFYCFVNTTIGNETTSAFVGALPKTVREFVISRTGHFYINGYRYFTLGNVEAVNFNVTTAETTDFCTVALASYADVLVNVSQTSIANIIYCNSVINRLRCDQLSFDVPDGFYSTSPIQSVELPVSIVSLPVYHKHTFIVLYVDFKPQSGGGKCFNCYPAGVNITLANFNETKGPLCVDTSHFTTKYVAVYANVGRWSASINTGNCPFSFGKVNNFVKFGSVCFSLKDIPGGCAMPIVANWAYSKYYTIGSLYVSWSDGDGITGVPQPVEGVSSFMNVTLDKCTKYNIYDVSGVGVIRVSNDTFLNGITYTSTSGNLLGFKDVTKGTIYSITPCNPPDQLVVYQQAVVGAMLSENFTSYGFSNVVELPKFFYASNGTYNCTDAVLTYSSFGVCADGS

Test [4] has as its target T3, HCoV-229E NTD (17–265 aa) (human coronavirus 229E, UniProt P15423 17-265).
T3 chain: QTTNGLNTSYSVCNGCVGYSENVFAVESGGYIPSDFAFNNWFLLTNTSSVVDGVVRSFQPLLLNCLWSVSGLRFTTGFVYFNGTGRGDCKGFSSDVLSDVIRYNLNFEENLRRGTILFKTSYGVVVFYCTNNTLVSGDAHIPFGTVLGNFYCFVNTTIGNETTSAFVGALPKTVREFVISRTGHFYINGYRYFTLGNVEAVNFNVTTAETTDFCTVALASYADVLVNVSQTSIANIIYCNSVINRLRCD

For test [5], the target named is T4, HCoV-NL63 S ectodomain (16–1291 aa) (human coronavirus NL63, UniProt Q6Q1S2 16-1291).
T4 chain: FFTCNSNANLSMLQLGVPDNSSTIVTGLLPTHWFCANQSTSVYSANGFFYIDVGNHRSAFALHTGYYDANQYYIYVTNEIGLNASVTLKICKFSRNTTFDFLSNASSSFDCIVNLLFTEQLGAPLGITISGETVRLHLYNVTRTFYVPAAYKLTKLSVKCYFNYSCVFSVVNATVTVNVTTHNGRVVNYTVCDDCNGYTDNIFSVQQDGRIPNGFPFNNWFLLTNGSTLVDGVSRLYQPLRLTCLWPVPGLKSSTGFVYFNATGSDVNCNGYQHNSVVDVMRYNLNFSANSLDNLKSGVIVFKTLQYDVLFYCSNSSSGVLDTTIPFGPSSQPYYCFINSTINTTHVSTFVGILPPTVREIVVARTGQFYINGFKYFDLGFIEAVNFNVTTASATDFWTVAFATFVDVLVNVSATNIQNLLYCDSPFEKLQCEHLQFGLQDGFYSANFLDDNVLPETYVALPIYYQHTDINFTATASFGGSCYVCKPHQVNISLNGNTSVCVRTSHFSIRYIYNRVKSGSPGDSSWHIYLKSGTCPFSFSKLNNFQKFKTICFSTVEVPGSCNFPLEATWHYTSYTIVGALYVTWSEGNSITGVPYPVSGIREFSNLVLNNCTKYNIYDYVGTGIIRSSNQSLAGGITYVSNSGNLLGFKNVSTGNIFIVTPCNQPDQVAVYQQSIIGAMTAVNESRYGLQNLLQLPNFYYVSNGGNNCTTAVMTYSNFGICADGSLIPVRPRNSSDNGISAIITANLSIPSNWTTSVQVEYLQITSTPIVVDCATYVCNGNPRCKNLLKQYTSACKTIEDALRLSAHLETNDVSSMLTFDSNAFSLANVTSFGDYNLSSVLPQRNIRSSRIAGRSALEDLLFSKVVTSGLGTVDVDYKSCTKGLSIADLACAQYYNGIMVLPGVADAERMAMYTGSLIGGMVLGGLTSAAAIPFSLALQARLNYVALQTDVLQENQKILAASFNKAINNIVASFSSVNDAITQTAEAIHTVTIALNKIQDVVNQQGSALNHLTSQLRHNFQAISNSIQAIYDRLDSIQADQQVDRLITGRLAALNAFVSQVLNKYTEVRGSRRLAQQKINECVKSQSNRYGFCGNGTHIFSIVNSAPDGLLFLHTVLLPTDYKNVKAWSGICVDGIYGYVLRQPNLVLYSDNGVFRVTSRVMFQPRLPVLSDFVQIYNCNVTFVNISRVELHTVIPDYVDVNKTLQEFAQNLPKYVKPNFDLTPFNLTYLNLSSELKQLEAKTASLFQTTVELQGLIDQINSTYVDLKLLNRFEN

For test [6], the target named is T4, HCoV-NL63 S ectodomain (16–1291 aa).
Test [7] concerns the target T2, HCoV-229E S1 subunit (17–560 aa).
Test [8] concerns the target T3, HCoV-229E NTD (17–265 aa).
Test [9] concerns the target T5, HCoV-229E S2 subunit (575–1115 aa) (human coronavirus 229E, UniProt P15423 575-1115).
T5 chain: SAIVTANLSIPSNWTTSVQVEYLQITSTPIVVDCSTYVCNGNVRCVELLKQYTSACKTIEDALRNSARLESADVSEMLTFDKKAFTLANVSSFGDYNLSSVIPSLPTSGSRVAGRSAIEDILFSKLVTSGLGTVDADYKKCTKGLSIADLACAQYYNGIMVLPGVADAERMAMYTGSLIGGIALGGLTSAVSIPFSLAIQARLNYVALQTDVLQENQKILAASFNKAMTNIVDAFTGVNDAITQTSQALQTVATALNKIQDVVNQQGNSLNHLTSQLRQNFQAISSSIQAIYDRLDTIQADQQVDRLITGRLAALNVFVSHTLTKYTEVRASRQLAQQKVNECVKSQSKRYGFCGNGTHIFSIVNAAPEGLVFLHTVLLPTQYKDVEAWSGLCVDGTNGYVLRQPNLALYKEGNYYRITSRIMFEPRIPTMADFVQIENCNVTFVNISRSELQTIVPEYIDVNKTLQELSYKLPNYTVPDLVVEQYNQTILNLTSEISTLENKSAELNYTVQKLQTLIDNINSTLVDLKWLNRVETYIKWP

B1: Fab F07 (Fab, V domains shown)
VH: EVQLVESGGGLVQPGGSLRLSCAASGFNISYYSIHWVRQAPGKGLEWVASIYPYYGYTSYADSVKGRFTISADTSKNTAYLQMNSLRAEDTAVYYCARSSGYYHYPYSHSGLDYWGQGTLVTVSS
VL: DIQMTQSPSSLSASVGDRVTITCRASQSVSSAVAWYQQKPGKAPKLLIYSASSLYSGVPSRFSGSRSGTDFTLTISSLQPEDFATYYCQQSYYWGGPITFGQGTKVEIK
In general, koff refers to the first-order rate constant of dissociation. Read a low koff as a long-lived complex. Usually Kd stands for a measure of binding affinity in units of concentration. High values mean weaker binding, low ones tighter binding. B1: the koff came out at 0.00035 s⁻¹ in test [1], 0.00036 s⁻¹ in test [7] and 0.00053 s⁻¹ in test [8]. Moreover, the Kd in test [2] came to 1.4 nM; in test [3], 0.7 nM; in [4], 3.1 nM; in [5], 6400 nM; in test [6], 3900 nM.

B2: Fab D12 (Fab, V domains shown)
VH: EVQLVESGGGLVQPGGSLRLSCAASGFNLSSYSMHWVRQAPGKGLEWVAYISPYYSYTSYADSVKGRFTISADTSKNTAYLQMNSLRAEDTAVYYCARVWYHSYPGWVPWGSWAFDYWGQGTLVTVSS
VL: DIQMTQSPSSLSASVGDRVTITCRASQSVSSAVAWYQQKPGKAPKLLIYSASSLYSGVPSRFSGSRSGTDFTLTISSLQPEDFATYYCQQAYYSPITFGQGTKVEIK
In the case of B2, the koff in test [1] is 0.0018 s⁻¹; in [7] it was 0.00086 s⁻¹; in test [8], 0.00043 s⁻¹. Moreover, the Kd in test [2] was 3.9 nM; in [3], 1.1 nM; in test [4], 3.2 nM; in test [5] it was 8400 nM; in [6] it was 3800 nM.

B3: Fab F12 (Fab, V domains shown)
VH: EVQLVESGGGLVQPGGSLRLSCAASGFNLYYYYIHWVRQAPGKGLEWVASISPYSGYTSYADSVKGRFTISADTSKNTAYLQMNSLRAEDTAVYYCARAFSSYYSHSVGLDYWGQGTLVTVSS
VL: DIQMTQSPSSLSASVGDRVTITCRASQSVSSAVAWYQQKPGKAPKLLIYSASSLYSGVPSRFSGSRSGTDFTLTISSLQPEDFATYYCQQHSWGGLITFGQGTKVEIK
B3: the koff in test [1] is 0.00091 s⁻¹; in [9] it was 2.7e-05 s⁻¹.
